This is an account of results in US20190071490A1, “Preventing Post-Ictal Headaches” (Beth Israel Deaconess Medical Center, Inc., priority 2017, published 2019).

First the molecules themselves.
T1: human α-CGRP (Homo sapiens, UniProt P06881)
T1 construct: 1-37 (WT); purchased GenScript Corporation or Global Peptide Services
T1 sequence (P06881 83-119 limits assumed): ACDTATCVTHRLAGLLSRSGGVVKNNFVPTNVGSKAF

T2: rat α-CGRP (Rattus norvegicus, UniProt P01256)
T2 construct: rat α (1-37); purchased GenScript Corporation or Global Peptide Services
T2 sequence (P01256 83-119 limits assumed): T1 sequence (P06881 83-119 limits assumed) with A1S, D3N, N25D, K35E

B1: M72: G1 variant; L1 R28N T30G; L2 L56S; H2 E54K; HC-FW3 L99T A100V (antibody, V domains shown)
VH: EVQLVESGGGLVQPGGSLRLSCAASGFTFSNYWISWVRQAPGKGLEWVAEIRSKSDASATHYAEAVKGRFTISRDNAKNSLYLQMNSLRAEDTAVYYCTVYFDYGLAIQNYWGQGTLVTVSS
VL: EIVLTQSPATLSLSPGERATLSCKASKNVGTYVSWYQQKPGQAPRLLIYGASNRYSGIPARFSGSGSGTDFTLTISSLEPEDFAVYYCSQSYNYPYTFGQGTKLEIK
B2: M74: G1 variant; L1 R28N T30G; L2 L56S; H2 E54K A57S; HC-FW3 L99T A100V (antibody, V domains shown)
VH: B1 VH with A57S
VL: B1 VL
B3: M24: G1 variant; L1 R28L; HC-FW3 L99T A100V (antibody, V domains shown)
VH: B1 VH with K54E
VL: B1 VL with N28L, G30T, S56L
B4: M23: G1 variant; L1 R28G; HC-FW3 L99T A100V (antibody, V domains shown)
VH: B1 VH with K54E
VL: B1 VL with N28G, G30T, S56L
B5: M82: G1 variant; L1 R28N T30V; L2 A51H L56T; H2 A57N; HC-FW3 L99T A100V (antibody, V domains shown)
VH: B1 VH with K54E, A57N
VL: B1 VL with G30V, A51H, S56T
B6: M80: G1 variant; L1 R28N T30S; L2 L561; H2 E54K A57N; S58V (printed in L1 column); HC-FW3 L99T A100V (antibody, V domains shown)
VH: B1 VH with A57N, S58V
VL: B1 VL with G30S, S56I
B7: M22: G1 variant; L1 R28W; HC-FW3 L99T (antibody, V domains shown)
VH: B1 VH with K54E, V100A
VL: B1 VL with N28W, G30T, S56L
B8: M26: G1 variant; L1 R28N; H2 A57G; HC-FW3 L99T A100V (antibody, V domains shown)
VH: B1 VH with K54E, A57G
VL: B1 VL with G30T, S56L
B9: M84: G1 variant; L1 R28N T30V; L2 A51H L56T; H2 E54N A57N; HC-FW3 L99T A100V (antibody, V domains shown)
VH: B1 VH with K54N, A57N
VL: B1 VL with G30V, A51H, S56T
B10: M78: G1 variant; L1 R28N T30S; L2 G50A L56T; H2 E54K A57N S58T; HC-FW3 L99T A100V (antibody, V domains shown)
VH: B1 VH with A57N, S58T
VL: B1 VL with G30S, G50A, S56T
B11: M20: G1 variant; L1 R28W; HC-FW3 L99R A100L (antibody, V domains shown)
VH: B1 VH with K54E, T99R, V100L
VL: B1 VL with N28W, G30T, S56L
B12: M75: G1 variant; L1 R28N T30G; L2 L56S; H2 E54K A57V; HC-FW3 L99T A100V (antibody, V domains shown)
VH: B1 VH with A57V
VL: B1 VL
B13: M77: G1 variant; L1 R28N T30S; L2 G50A L56T; H2 E54K A57D; HC-FW3 L99T A100V (antibody, V domains shown)
VH: B1 VH with A57D
VL: B1 VL with G30S, G50A, S56T
B14: M21: G1 variant; L1 R28W; HC-FW3 L99S (antibody, V domains shown)
VH: B1 VH with K54E, T99S, V100A
VL: B1 VL with N28W, G30T, S56L
B15: M81: G1 variant; L1 R28N T30S; L2 L56S; H2 E54K A57N S58E; HC-FW3 L99T A100V (antibody, V domains shown)
VH: B1 VH with A57N, S58E
VL: B1 VL with G30S
B16: M79: G1 variant; L1 R28N T30S; L2 G50A L56T; H2 E54K A57P; HC-FW3 L99T A100V (antibody, V domains shown)
VH: B1 VH with A57P
VL: B1 VL with G30S, G50A, S56T
B17: M83: G1 variant; L1 R28N T30V; L2 A51H L56T; H2 E54K A57N S58M; H61F (printed in L1 column); HC-FW3 L99T A100V (antibody, V domains shown)
VH: B1 VH with A57N, S58M, H61F
VL: B1 VL with G30V, A51H, S56T
B18: M76: G1 variant; L1 R28N T30S; L2 G50A L56T; H2 A57G; HC-FW3 L99T A100V (antibody, V domains shown)
VH: B1 VH with K54E, A57G
VL: B1 VL with G30S, G50A, S56T
B19: M73: G1 variant; L1 R28N T30G; L2 L56S; H2 E54K A57N S58Y E64D; HC-FW3 L99T A100V (antibody, V domains shown)
VH: B1 VH with A57N, S58Y, E64D
VL: B1 VL

Numbering of substitutions follows the chain as printed. In names and notes the source's numbering stands.

One experiment deals with T1, human α-CGRP. The experiment is described as follows: Biacore SPR affinity of Fab fragments to N-biotinylated human α-CGRP on SA chip. The settings on record: 37° C., screening mode except underlined values. The class given is binding. As to the method:
(§1) Affinity determination of the Fabs. Affinities of the anti-CGRP monoclonal antibodies were determined at either 25° C. or 37° C. using the BIACORE3000™ surface plasmon resonance (SPR) system (Biacore, INC, Piscataway N.J.) with the manufacture's own running buffer, HBS-EP (10 mM HEPES pH 7.4, 150 mM NaCl, 3 mM EDTA, 0.005% v/v polysorbate P20). Affinity was determined by capturing N-terminally biotinylated CGRP peptides (custom ordered from GenScript Corporation, New Jersey or Global Peptide Services, Colorado) via pre-immobilized streptavidin on SA chip and measuring binding kinetics of antibody Fab titrated across the CGRP surface. Biotinylated CGRP was diluted into HBS-EP and injected over the chip at a concentration of less than 0.001 mg/ml. Using variable flow time across the individual chip channels, two ranges of antigen density were achieved: <50 response units (RU) for detailed kinetic studies and about 800 RU for concentration studies and screening. […] After each binding cycle, surfaces were regenerated with 25 mM NaOH in 25% v/v ethanol, which was tolerated over hundreds of cycles. Kinetic association rate (kon) and dissociation rate (koff) were obtained simultaneously by fitting the data to a 1:1 Langmuir binding model (Karlsson et al. (1994). Methods Enzymology 6. 99-110) using the BIAevaluation program. Global equilibrium dissociation constants (KD) or “affinities” were calculated from the ratio KD=koff/kon.
(§2) Biacore assay for affinity determination. […] All Biacore assays were conducted in HBS-EP running buffer (10 mM HEPES pH 7.4, 150 mM NaCl, 3 mM EDTA, 0.005% v/v polysorbate P20). CGRP surfaces were prepared by diluting the N-biotinylated CGRP to a concentration of less than 0.001 mg/mL into HBS-EP buffer and injecting it across the SA sensor chip using variable contact times. Low capacity surfaces, corresponding to capture levels <50 response units (RU) were used for high-resolution kinetic studies, whereas high capacity surfaces (about 800 RU of captured CGRP) were used for concentration studies, screening, and solution affinity determinations. […] Samples were typically injected for 1 minute at 100 μL/min and dissociation times of at least 10 minutes were allowed. After each binding cycle, surfaces were regenerated with 25 mM NaOH in 25% v/v ethanol, which was tolerated over hundreds of cycles. An entire titration series (typically generated in duplicate) was fit globally to a 1:1 Langmuir binding model using the BIAevaluation program. This returned a unique pair of association and dissociation kinetic rate constants (respectively, kon and koff) for each binding interaction, whose ratio gave the equilibrium dissociation constant (KD=koff/kon).
(§3) High-resolution analysis of binding interactions with extremely slow off rates. […] The protocol described above was used with the following modifications. The association rate constant (kon) was determined by injecting a 2-fold titration series (in duplicate) spanning 550 nM-1 nM for 30 seconds at 100 μL/min and allowing only a 30 second dissociation phase. The dissociation rate constant (koff) was determined by injecting three concentrations (high, medium, and low) of the same titration series in duplicate for 30 seconds and allowing a 2-hour dissociation phase. The affinity (KD) of each interaction was obtained by combining the kon and koff values obtained in both types of experiments, as shown in Table 4.
Regarding B1, the “α-human koff” value stood at 0.0004 s⁻¹.

For the molecule B2, the “α-human koff” value is 0.000597 s⁻¹.

On to B3, for which the “α-human koff” value stood at 0.000148 s⁻¹.

For the molecule B4, the “α-human koff” value turned out to be 0.00013 s⁻¹.

Take B5: the “α-human koff” value stood at 0.000877 s⁻¹.

For the molecule B6, the “α-human koff” value came out at 0.00209 s⁻¹.

Regarding B7, the “α-human koff” value was found to be 0.000116 s⁻¹.

B8: the “α-human koff” value was 0.000148 s⁻¹.

Turning to B9, the “α-human koff” value came to 0.00108 s⁻¹.

As to B10, the “α-human koff” value stood at 0.00131 s⁻¹.

On to B11, for which the “α-human koff” value was 0.000136 s⁻¹.

With B12, the “α-human koff” value was found to be 0.00116 s⁻¹.

B13: the “α-human koff” value stood at 0.000477 s⁻¹.

For the molecule B14, the “α-human koff” value is 0.000142 s⁻¹.

Turning to B15, the “α-human koff” value is 0.00049 s⁻¹.

With B16, the “α-human koff” value is 0.00129 s⁻¹.

On to B17, for which the “α-human koff” value turned out to be 0.000933 s⁻¹.

With B18, the “α-human koff” value worked out at 0.000364 s⁻¹.

On to B19, for which the “α-human koff” value came to 0.000255 s⁻¹.

In the next experiment the target is T2, rat α-CGRP. The experiment is described as follows: Biacore SPR affinity of Fab fragments to N-biotinylated rat α-CGRP on SA chip. The format is binding. The settings on record: 37° C., screening mode except underlined values. As to the method: as §1, §2, §3
With B1, the “α-rat koff” value worked out at 0.00395 s⁻¹.

On to B2, for which the “α-rat koff” value is 0.00603 s⁻¹.

Regarding B3, the “α-rat koff” value was 0.00104 s⁻¹.

As for B4, the “α-rat koff” value stood at 0.000799 s⁻¹.

In the case of B5, the “α-rat koff” value was determined as 0.00699 s⁻¹.

For B6, the “α-rat koff” value is 0.0993 s⁻¹.

With B7, the “α-rat koff” value was 0.0011 s⁻¹.

In the case of B8, the “α-rat koff” value stood at 0.000924 s⁻¹.

In the case of B9, the “α-rat koff” value was determined as 0.0176 s⁻¹.

Regarding B10, the “α-rat koff” value turned out to be 0.167 s⁻¹.

With B11, the “α-rat koff” value is 0.00144 s⁻¹.

Take B12: the “α-rat koff” value worked out at 0.0187 s⁻¹.

As for B13, the “α-rat koff” value worked out at 0.0143 s⁻¹.

With B14, the “α-rat koff” value worked out at 0.000695 s⁻¹.

On to B15, for which the “α-rat koff” value turned out to be 0.00429 s⁻¹.

Regarding B16, the “α-rat koff” value was found to be 0.19 s⁻¹.

On to B17, for which the “α-rat koff (1/s)” value is “No binding”.

As to B18, the “α-rat koff” value came out at 0.00116 s⁻¹.

Take B19: the “α-rat koff” value is 0.003 s⁻¹.
